Here are results for one substance from paper doi:10.1101/2022.10.03.510455.

What is called IC50 is the concentration that inhibits the measured activity by half.

The experiment deals with FLAG tagged TSC2 (UniProt P49815). Put plainly: single molecule pulldown.
Chain of UniProt P49815 (P49815 whole entry): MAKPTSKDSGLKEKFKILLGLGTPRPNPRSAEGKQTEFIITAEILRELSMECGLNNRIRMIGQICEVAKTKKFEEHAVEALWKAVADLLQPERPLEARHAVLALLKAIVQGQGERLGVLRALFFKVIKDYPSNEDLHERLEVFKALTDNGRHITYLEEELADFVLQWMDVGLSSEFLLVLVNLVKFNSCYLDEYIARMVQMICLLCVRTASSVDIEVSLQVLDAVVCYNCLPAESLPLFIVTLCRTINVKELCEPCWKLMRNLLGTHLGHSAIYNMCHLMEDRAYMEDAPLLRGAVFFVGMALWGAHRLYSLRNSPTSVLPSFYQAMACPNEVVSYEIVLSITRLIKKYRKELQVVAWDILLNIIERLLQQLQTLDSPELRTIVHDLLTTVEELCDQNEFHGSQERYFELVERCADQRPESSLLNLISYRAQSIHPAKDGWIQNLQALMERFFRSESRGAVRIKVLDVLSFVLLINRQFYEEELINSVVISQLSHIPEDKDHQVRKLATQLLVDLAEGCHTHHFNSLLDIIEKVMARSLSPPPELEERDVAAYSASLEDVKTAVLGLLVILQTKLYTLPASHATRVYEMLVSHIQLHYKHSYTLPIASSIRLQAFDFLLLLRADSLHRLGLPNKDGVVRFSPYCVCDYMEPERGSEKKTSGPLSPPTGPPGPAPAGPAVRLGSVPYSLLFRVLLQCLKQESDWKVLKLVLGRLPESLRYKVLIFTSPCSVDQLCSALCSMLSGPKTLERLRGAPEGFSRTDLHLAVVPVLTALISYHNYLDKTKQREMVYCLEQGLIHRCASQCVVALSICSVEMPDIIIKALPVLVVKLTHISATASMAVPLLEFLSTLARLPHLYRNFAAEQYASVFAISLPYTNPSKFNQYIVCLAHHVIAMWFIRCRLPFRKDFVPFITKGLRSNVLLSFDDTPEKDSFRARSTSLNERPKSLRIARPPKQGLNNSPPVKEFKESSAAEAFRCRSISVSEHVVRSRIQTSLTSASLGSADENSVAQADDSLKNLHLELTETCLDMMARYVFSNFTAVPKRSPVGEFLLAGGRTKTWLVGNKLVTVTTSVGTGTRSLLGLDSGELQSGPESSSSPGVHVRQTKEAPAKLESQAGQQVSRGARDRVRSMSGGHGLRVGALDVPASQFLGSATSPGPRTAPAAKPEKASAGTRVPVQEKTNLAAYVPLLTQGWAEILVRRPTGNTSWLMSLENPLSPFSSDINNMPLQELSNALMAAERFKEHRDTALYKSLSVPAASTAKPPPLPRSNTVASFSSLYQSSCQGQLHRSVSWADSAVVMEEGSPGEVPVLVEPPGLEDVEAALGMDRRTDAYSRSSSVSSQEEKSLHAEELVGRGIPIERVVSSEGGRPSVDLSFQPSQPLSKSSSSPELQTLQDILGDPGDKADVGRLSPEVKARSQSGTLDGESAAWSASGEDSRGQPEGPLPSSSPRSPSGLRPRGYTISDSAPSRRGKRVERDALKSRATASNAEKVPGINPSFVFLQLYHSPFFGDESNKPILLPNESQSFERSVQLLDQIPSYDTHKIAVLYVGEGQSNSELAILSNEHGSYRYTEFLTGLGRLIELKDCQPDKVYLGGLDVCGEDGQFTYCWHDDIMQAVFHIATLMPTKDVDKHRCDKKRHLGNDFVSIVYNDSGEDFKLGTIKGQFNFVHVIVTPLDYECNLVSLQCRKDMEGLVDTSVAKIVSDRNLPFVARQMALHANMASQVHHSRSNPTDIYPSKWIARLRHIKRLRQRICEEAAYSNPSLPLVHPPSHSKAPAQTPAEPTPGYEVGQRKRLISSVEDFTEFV

In turn, “recombinant α-syn PFF (from UniProt P37840 1-140) (natural protein)” gave an IC50 of 0.5 nM.
